Source: publication doi:10.1101/2022.09.08.506998

Target: full-length KIT(T417I,Δ418-419) (kinase-inactive K623A) (human)
Experiment: cryo-EM structure

full-length KIT(T417I,Δ418-419) (kinase-inactive K623A) (receptor)
stoichiometry N: 2
